{"source": "patent US11957762B2", "about": "“Immune tolerant and non-immune tolerant elastin-like recombinant peptides and methods of use” (University of Utah Research Foundation, priority 2015, dated 2024)", "key": {"[1]": {"test_system": "endothelial cells (EA.hy926 and bEnd.3) and fibroblasts (3T3)", "test": "Cellular uptake of iTEP-vaccine fusions by control cells", "format": "cell-based", "conditions": "5 μM coumarin-labeled fusions, 4 h", "procedure": "Cellular uptake of iTEP-vaccine fusions. DC2.4, EA.hy926, bEnd.3, 3T3 cells were plated at 1.5×10^5/500 μL/well in 24-well plates. When the cells attached to the bottom of the plate (4 h or overnight), the media was replaced with 500 μL of fresh media with or without 5 μM of coumarine labeled iTEP-vaccine fusions. After being cultured for 4 h at 37° C. in 5% CO2, the cells were collected and washed twice with PBS. The fluorescence of the cells was measured by flow cytometry (collecting 5×10^4 events per sample)."}, "[2]": {"test": "Response of NPs to reductants (DLS after GSH or DTT)", "format": "physicochemical", "conditions": "16 hours, by number distribution", "procedure": "The next set of experiments tested whether disulfide bonds inside the new NP were reducible and if the NP structure was dissolvable in a reductive environment like cytosol (glutathione, GSH 1-10 mM) (Smith et al., Toxicol Appl Pharmacol, 1996; 140(1):1-12; Wu et al., J Nutr, 2004; 134(3):489-92). The new NP and the ST-NP were treated using two concentrations of GSH, at 37° C. overnight and then analyzed particle structure changes of both NPs by DLS. These concentrations mimic GSH concentrations in either cytoplasm (GSH 1-10 mM) or the extracellular (GSH 1-10 μM) environment (Smith et al., Toxicol Appl Pharmacol, 1996; 140(1):1-12; Cantin et al., Appl Physiol (1985), 1987, 63(1):152-7; Jones et al., Clin Chim Acta, 1998; 275(2):175-84). Both NPs were stable at 10 μM of GSH. The new NP lost its particle structure after being treated with 1 mM of GSH (Table 4). […] In contrast, the ST-NP, as a control, maintained its particle structure regardless of its incubation with any concentration of GSH. Similar results emerged when dithiothreitol (DTT) was used as the reductant except that the new iTEP-NP was not stable in 10 μM of DTT (Table 4). […] The new NP was named the reductive-environment dependable NP or RED-NP."}, "[3]": {"test_system": "DC2.4 cells", "test": "Cellular uptake of iTEP-vaccine fusions by DCs", "format": "cell-based, murine", "procedure": "Fluorescent labeling of iTEP-vaccine fusions. For the flow cytometry study, the fusions were labeled with the amine-reactive coumarin, 7-diethylaminocoumarin-3-carboxylic acid, through succinimidyl ester to form blue-fluorescent bioconjugates. For the microscopy-based cellular uptake study and the cellular degradation study, the fusions were labeled with Alexa Fluo 488 5-SDP ester (Alexa-488) to form green-fluorescent bioconjugates. The reactions were performed based on the manufacturer's instructions (Molecular Probes by Life Technologies). Briefly, 10 mg of iTEPs were reacted with 1 mg of coumarin or 0.2 mg of Alexa-488 in 0.1 M sodium bicarbonate buffer, pH 8.3 at a final volume of 1 mL. The reaction was carried out with continuous stirring in the dark and at room temperature for 1.5 h. The protein-dye conjugates were purified using Amicon Ultra1-5 (10k) centrifugal filters (Millipore). The coumarin conjugate was measured for their absorbances of at 205 nm (A205) and 433 nm (A433, λmax for coumarin); the Alexa-488 conjugate was measured at 205 nm and 495 nm (A495, λmax for Alexa-488). The iTEP-vaccine fusion concentrations and the degree of labeling (DOL) were calculated based on these equations: […]\nCellular uptake of iTEP-vaccine fusions. […] The fluorescence of the cells was measured by flow cytometry (collecting 5×10^4 events per sample). […]"}, "[4]": {"test": "SDS-PAGE analysis of NPs after GSH treatment", "format": "physicochemical", "conditions": "GSH overnight, non-reducing gels", "procedure": "SDS-PAGE was used to analyze responses of the RED-NP, the MS-NP, and the ST-NP to the treatment of 1 mM GSH. 1 mM but not 10 μM of GSH reduced disulfide bonds inside RED-NP. A large fraction of polymers of the RED-NP fusion (iTEPB70-iTEPA28-(G8C)4-pOVA; (SEQ ID NO: 61)) became monomers due to the treatment of 1 mM GSH, showing as a 50-kDa band on the gel. In contrast, GSH had no effect on polymerization status of the fusions of MS-NP and ST-NP. Non-reducing gels and 25 μg of each fusion were used for the analysis."}, "[5]": {"test": "Critical micelle concentration by pyrene assay", "format": "physicochemical", "conditions": "pyrene assay in PBS", "procedure": "Measurement of critical micelle concentrations (CMCs) of iTEP-vaccine fusions by pyrene assay. The CMCs of iTEP-vaccine fusions (NPs) were measured through fluorescence spectra by using pyrene as a hydrophobic fluorescent probe as described previously with some adjustments (Ohyanagi et al., Jpn J Clin Oncol, 2011; 41(5); 718-22; Dreher et al., J Am Chem Soc, 2008; 130(2):687-94). Briefly, the fusions were serially 2×time diluted in PBS starting from 250 μM in 96-well black clear-bottom plates. The final volume for each dilution was 150 μL. Three μL of a stock solution of 30 μM pyrene in ethanol was added to each well and mixed well. Fluorescence of these samples were scanned using an Infinite M1000 PRO plate reader (Tecan Trading AG, Switzerland) with the setting: Ex: 334 nm with a slit of 10 nm, Em: ranging 360-400 nm with a slit of 2.5 nm. Four peaks were recorded for pyrene between 360-400 nm. The ratio of emission peak number 1 (I1; 370-373 nm) and emission peak number 3 (I3; 381-384 nm) of pyrene (I1/I3) was plotted as a function of iTEP concentration. The data points were fitted to a sigmoidal-dose response curve, and the CMC was defined as the inflection point of the curve."}}}
{"molecule": "ST-NP: stable NP of the fusion iTEPB70-iTEPA56-pOVA (SEQ ID NO: 60) (protein) GGAGVPGGAGVPGGAGVPGGAGVPGGAGVPGGAGVPGGAGVPGGAGVPGGAGVPGGAGVPGGAGVPGGAGVPGGAGVPGGAGVPGGAGVPGGAGVPGGAGVPGGAGVPGGAGVPGGAGVPGGAGVPGGAGVPGGAGVPGGAGVPGGAGVPGGAGVPGGAGVPGGAGVPGGAGVPGGAGVPGGAGVPGGAGVPGGAGVPGGAGVPGGAGVPGGAGVPGGAGVPGGAGVPGGAGVPGGAGVPGGAGVPGGAGVPGGAGVPGGAGVPGGAGVPGGAGVPGGAGVPGGAGVPGGAGVPGGAGVPGGAGVPGGAGVPGGAGVPGGAGVPGGAGVPGGAGVPGGAGVPGGAGVPGGAGVPGGAGVPGGAGVPGGAGVPGGAGVPGGAGVPGGAGVPGGAGVPGGAGVPGGAGVPGGAGVPGGAGVPGGGVLPGVGGVLPGVGGVLPGVGGVLPGVGGVLPGVGGVLPGVGGVLPGVGGVLPGVGGVLPGVGGVLPGVGGVLPGVGGVLPGVGGVLPGVGGVLPGVGGVLPGVGGVLPGVGGVLPGVGGVLPGVGGVLPGVGGVLPGVGGVLPGVGGVLPGVGGVLPGVGGVLPGVGGVLPGVGGVLPGVGGVLPGVGGVLPGVGGGGGGGGGCGGGGGGGGCGGGGGGGGCGGGGGGGGCGESIINFEKLTESIINFEKLTGG", "values": [{"measurement": "uptake by endothelial cells and fibroblasts relative to the MS-NP", "setting": "[1]", "value": "either the same amount or less"}, {"measurement": "Hydrodynamic diameter (nm)", "setting": "[2]; DTT 10 μM", "value": "52.56 ± 13.67 (NP) nm"}, {"measurement": "Hydrodynamic diameter (nm)", "setting": "[2]; DTT 1000 μM", "value": "53.10 ± 13.56 (NP) nm"}, {"measurement": "Hydrodynamic diameter (nm)", "setting": "[2]; GSH 10 μM", "value": "52.23 ± 13.59 (NP) nm"}, {"measurement": "Hydrodynamic diameter (nm)", "setting": "[2]; GSH 1000 μM", "value": "50 ± 13.62 (NP) nm"}, {"measurement": "Hydrodynamic diameter (nm)", "setting": "[2]; no reductant (0 μM)", "value": "54.82 ± 12.89 (NP) nm"}, {"measurement": "uptake by DCs, times more than the MS-NP", "setting": "[3]; 5 μM coumarin-labeled fusions, 4 h", "value": "two"}, {"measurement": "response to GSH treatment (reduction of disulfide bonds, SDS-PAGE)", "setting": "[4]", "value": "did not respond to the treatment"}, {"measurement": "CMC (critical micelle concentration)", "setting": "[5]", "value": 23.94, "unit": "µM"}]}
{"molecule": "G(GAGVPG)70G(GVLPGVG)28G(ESIINFEKLT)2GG (protein) GGAGVPGGAGVPGGAGVPGGAGVPGGAGVPGGAGVPGGAGVPGGAGVPGGAGVPGGAGVPGGAGVPGGAGVPGGAGVPGGAGVPGGAGVPGGAGVPGGAGVPGGAGVPGGAGVPGGAGVPGGAGVPGGAGVPGGAGVPGGAGVPGGAGVPGGAGVPGGAGVPGGAGVPGGAGVPGGAGVPGGAGVPGGAGVPGGAGVPGGAGVPGGAGVPGGAGVPGGAGVPGGAGVPGGAGVPGGAGVPGGAGVPGGAGVPGGAGVPGGAGVPGGAGVPGGAGVPGGAGVPGGAGVPGGAGVPGGAGVPGGAGVPGGAGVPGGAGVPGGAGVPGGAGVPGGAGVPGGAGVPGGAGVPGGAGVPGGAGVPGGAGVPGGAGVPGGAGVPGGAGVPGGAGVPGGAGVPGGAGVPGGAGVPGGAGVPGGAGVPGGESIINFEKLTESIINFEKLTGG", "values": [{"measurement": "response to GSH treatment (reduction of disulfide bonds, SDS-PAGE)", "setting": "[4]", "value": "did not respond to the treatment"}, {"measurement": "CMC (critical micelle concentration)", "setting": "[5]", "value": 120.6, "unit": "µM"}]}
{"molecule": "RED-NP: reductive-environment dependable NP, disulfide stabilized fusion iTEPB70-iTEPA28-(G8C)4-pOVA (SEQ ID NO: 61) (protein) GGAGVPGGAGVPGGAGVPGGAGVPGGAGVPGGAGVPGGAGVPGGAGVPGGAGVPGGAGVPGGAGVPGGAGVPGGAGVPGGAGVPGGAGVPGGAGVPGGAGVPGGAGVPGGAGVPGGAGVPGGAGVPGGAGVPGGAGVPGGAGVPGGAGVPGGAGVPGGAGVPGGAGVPGGAGVPGGAGVPGGAGVPGGAGVPGGAGVPGGAGVPGGAGVPGGAGVPGGAGVPGGAGVPGGAGVPGGAGVPGGAGVPGGAGVPGGAGVPGGAGVPGGAGVPGGAGVPGGAGVPGGAGVPGGAGVPGGAGVPGGAGVPGGAGVPGGAGVPGGAGVPGGAGVPGGAGVPGGAGVPGGAGVPGGAGVPGGAGVPGGAGVPGGAGVPGGAGVPGGAGVPGGAGVPGGAGVPGGAGVPGGAGVPGGAGVPGGAGVPGGGVLPGVGGVLPGVGGVLPGVGGVLPGVGGVLPGVGGVLPGVGGVLPGVGGVLPGVGGVLPGVGGVLPGVGGVLPGVGGVLPGVGGVLPGVGGVLPGVGGVLPGVGGVLPGVGGVLPGVGGVLPGVGGVLPGVGGVLPGVGGVLPGVGGVLPGVGGVLPGVGGVLPGVGGVLPGVGGVLPGVGGVLPGVGGVLPGVGGCGCGCGCGESIINFEKLTESIINFEKLTGG", "values": [{"measurement": "Hydrodynamic diameter (nm)", "setting": "[2]; DTT 10 μM", "value": "8.75 ± 2.03", "unit": "nm"}, {"measurement": "Hydrodynamic diameter (nm)", "setting": "[2]; DTT 1000 μM", "value": "6.43 ± 2.01", "unit": "nm"}, {"measurement": "Hydrodynamic diameter (nm)", "setting": "[2]; GSH 10 μM", "value": "37.98 ± 6.72 (NP) nm"}, {"measurement": "Hydrodynamic diameter (nm)", "setting": "[2]; GSH 1000 μM", "value": "8.35 ± 1.04", "unit": "nm"}, {"measurement": "Hydrodynamic diameter (nm)", "setting": "[2]; no reductant (0 μM)", "value": "47.11 ± 13.18 (NP) nm"}, {"measurement": "internalization to DCs", "setting": "[3]; fluorescence microscopy and flow cytometry", "value": "as efficient as the ST-NP and more robust than the MS-NP"}, {"measurement": "response to GSH treatment (reduction of disulfide bonds, SDS-PAGE)", "setting": "[4]", "value": "can be reduced by 1 mM but not by 10 μM of GSH"}]}
